Patent US20230310559A1, “Use of Amylase or Maltose to Treat or Prevent Neurodegeneration” (St. Jude Children's Research Hospital, Inc., priority 2020, published 2023)
“Also recorded” adds a separate entry of the source.

B1: Amy-d: other Drosophila amylase, transgenic overexpression (protein, UniProt P81641 19-494, looked up)
Alpha-amylase B: QFDTNYASGRSGMVHLFEWKWDDIAAECENFLGPNGYAGVQVSPVNENAVKDSRPWWERYQPISYKLETRSGNEEQFASMVKRCNAVGVRTYVDVVFNHMAADGGTYGTGGSTASPSSKSYPGVPYSSLDFNPTCAISNYNDANEVRNCELVGLRDLNQGNSYVQDKVVEFLDHLIDLGVAGFRVDAAKHMWPADLAVIYGRLKNLNTDHGFASGSKAYIVQEVIDMGGEAISKSEYTGLGAITEFRHSDSIGKVFRGKDQLQYLTNWGTAWGFAASDRSLVFVDNHDNQRGHGAGGADVLTYKVPKQYKMASAFMLAHPFGTPRVMSSFSFTDTDQGPPTTDGHNIASPIFNSDNSCSGGWVCEHRWRQIYNMVAFRNTVGSDEIQNWWDNGSNQISFSRGSRGFVAFNNDNYDLNSSLQTGLPAGTYCDVISGSKSGSSCTGKTVTVGSDGRASIYIGSSEDDGVLAIHVNAKL
B2: Amy-p: other Drosophila amylase, transgenic overexpression (protein, UniProt P08144 19-494, looked up)
Alpha-amylase A: QFDTNYASGRSGMVHLFEWKWDDIAAECENFLGPNGYAGVQVSPVNENAVKDSRPWWERYQPISYKLETRSGNEEQFASMVKRCNAVGVRTYVDVVFNHMAADGGTYGTGGSTASPSSKSYPGVPYSSLDFNPTCAISNYNDANEVRNCELVGLRDLNQGNSYVQDKVVEFLDHLIDLGVAGFRVDAAKHMWPADLAVIYGRLKNLNTDHGFASGSKAYIVQEVIDMGGEAISKSEYTGLGAITEFRHSDSIGKVFRGKDQLQYLTNWGTAWGFAASDRSLVFVDNHDNQRGHGAGGADVLTYKVPKQYKMASAFMLAHPFGTPRVMSSFSFTDTDQGPPTTDGHNIASPIFNSDNSCSGGWVCEHRWRQIYNMVAFRNTVGSDEIQNWWDNGSNQISFSRGSRGFVAFNNDNYDLNSSLQTGLPAGTYCDVISGSKSGSSCTGKTVTVGSDGRASINIGSSEDDGVLAIHVNAKL
B3: Amyrel: a secreted amylase enzyme (Drosophila myokine), GENBANK Accession No. NP_477262.1, given by transgenic overexpression (protein, UniProt O18408 20-493, looked up)
Alpha-amylase-related protein: QHNPHWWGNRNTIVHLFEWKWSDIAQECESFLGPRGFAGVQVSPVNENILSAGRPWWERYQPISYKLTTRSGNEEEFGDMVRRCNDVGVRIYVDVLLNHMSGDFDGVAVGTAGTEAEPSKKSFPGVPYTAQDFHPTCEITDWNDRFQVQQCELVGLKDLDQSSDWVRSKLIEFLDHLIELGVAGFRVDAAKHMASEDLEYIYSSLSNLNIDHGFPHNSRPFIFQEVIDHGHETVSRDEYKDLGAVTEFRFSEEIGNAFRGNNALKWLQSWGTDWGFLPSGQALTFVDNHDNQRDAGAVLNYKSPRQYKMATAFHLAYPYGISRVMSSFAFDDHDTPPPQDAQERIISPEFDADGACVNGWICEHRWRQIYAMVGFKNAVRDTEITGWWDNGDNQISFCRGNKGFLAINNNLYDLSQDLNTCLPAGTYCDVISGSLIDGSCTGKSVTVNENGYGYIHIGSDDFDGVLALHVDAKV

Columns and labels:
[1] = tested on: Huntingtin-polyQ72-GFP aggregates in the Drosophila retina; experiment: Analysis of pathogenic Huntingtin-polyQ72-GFP aggregation in Drosophila retina; type: in vivo; conditions: transgenic overexpression in Drosophila retinas during aging, compared to controls
Method: (§1) Cloning of Myokines and Fly Transgenesis. The coding sequences of Drosophila CG4666, CG8093, Amyrel, Ag5r2, Amy-d, and Amy-p were generated as synthetic minigenes and cloned into the pUASTattB vector with the EcoRI and KpnI restriction enzymes. These plasmids were then injected into attP40 and/or attP2 by using the site-specific phiC31 integrase (Markstein, et al. (2008) Nat. Genet. 40(4):476-483) to generate transgenic flies.
Analysis of Pathogenic Huntingtin Aggregation. Pathogenic Huntingtin-polyQ72-GFP protein aggregates (Zhang, et al. (2010) Genetics 184(4):1165-79) were imaged with an epifluorescence microscope and the number and total area of protein aggregates estimated with CELLPROFILER™. This analysis was done with male flies after aging at 25° C. for 30 days, and/or aging at 29° C. for 20 days. A custom-made script was used for image analysis in CELLPROFILER™.
Analysis of Huntingtin-GFP Aggregates in Drosophila Eye. Frozen Drosophila was used for imaging of the eyes using ZEISS SteREO Discovery.V12 microscope at a specific exposure time and consistent settings. The acquired gray scale images were then analyzed for the area occupied by aggregates (Huntingtin-GFP specks) using CELLPROFILER™ 3.0.0 pipeline.

[2] = tested on: Drosophila heads and thoraces; experiment: Western blots of detergent-soluble and detergent-insoluble fractions of Drosophila heads and thoraces during aging; type: in vivo
Method: as §1
Western Blots of Detergent-Soluble and Detergent-Insoluble Fractions. Western blots for detergent-soluble and detergent-insoluble fractions were carried out as previously described (Demontis & Perrimon (2010) Cell 143(5):813-825). In brief, heads and thoraces were dissected from 30 male flies/sample and homogenized in ice-cold PBS with 1% TRITON™ X-100 containing protease and phosphatase inhibitors. Homogenates were centrifuged at 14,000 rpm at 4° C. and supernatants collected (TRITON™ X-100-soluble fraction). The remaining pellet was washed in ice-cold PBS with 1% TRITON™ X-100. The pellet was then resuspended in RIPA buffer containing 8M urea and 5% SDS, centrifuged at 14,000 rpm at 4° C., and the supernatant collected (TRITON™ X-100-insoluble fraction). Detergent-soluble and detergent-insoluble fractions were analyzed on 4-20% SDS-PAGE with anti-ubiquitin (Cell Signaling Technologies P4D1), anti-Ref(2)P/p62 (Abcam), anti-Atg8/GABARAP (Abcam), and/or anti-GFP (Cell Signaling Technologies) antibodies. Ponceau S staining, anti-Tubulin antibodies (Cell Signaling Technologies), and/or anti-actin antibodies were used as loading controls.
Soluble and Insoluble Protein Fractionation from Drosophila Tissues. Thoraces or heads were dissected from 30 male flies and homogenized in 100 μL ice-cold TRITON™ X-100 buffer (1% TRITON™ X-100 in PBS containing protease inhibitor and phosphatase inhibitor) for 5 minutes at highest speed. Homogenates were centrifuged at 14000 rpm at 4° C. for 10 minutes and supernatant collected (TRITON™ X-100-soluble fraction). The remaining pellet was washed in 400 μL of TRITON™ X-100 buffer, twice at 14000 rpm for 5 minutes at 4° C. The pellet was then resuspended in 100 μL 1× RIPA buffer containing 8M urea and 5% SDS at room temperature, centrifuged at 14000 rpm at 4° C. for 10 minutes, and supernatant was collected (TRITON™ X-100-insoluble fraction). Six μL of soluble/insoluble protein extracts were boiled with sample buffer containing DTT and separated by gel electrophoresis.

[3] = tested on: Drosophila brains and retinas; experiment: Whole-mount immunostaining of Drosophila brains and retinas (poly-ubiquitin protein aggregates); type: in vivo; conditions: muscle-specific overexpression with Mhc-Gal4 or Act88F-GS-Gal4, compared to isogenic controls
Method: Whole-Mount Immunostaining of Drosophila Brains and Retinas. The immunostaining of brains and retinas was carried out using established methods (Demontis & Perrimon (2009) Development 136(6):983-93; Demontis & Perrimon (2010) Cell 143(5):813-825). In brief, retinas and brains were dissected, fixed for 30 minutes in phosphate-buffered saline (PBS) with 4% paraformaldehyde and 0.2% TRITON⋅ X-100 at room temperature, washed for >3 times in PBS with 0.2% TRITON⋅ X-100 at room temperature, and immunostained overnight at 4° C. with rabbit anti-poly-ubiquitin (FK2; Enzo Life Sciences) and anti-Ref(2)P/p62 antibodies (Abeam). After washes with PBS with 0.2% TRITON⋅ X-100, the samples were incubated for 2 hours at room temperature with secondary antibodies and phalloidin conjugated to a fluorescent dye sold under the tradename ALEXA FLUOR® 635. The samples were subsequently washed, mounted in antifade medium and imaged on a Zeiss LSM 880 confocal microscope.

Drosophila = experiment: Startle-induced negative geotaxis; type: in vivo; conditions: muscle-specific overexpression, compared to isogenic controls
Method: Startle-Induced Negative Geotaxis. Startle-induced negative geotaxis was carried out according to established methods. Specifically, flies were tapped and the number of flies that reached the top of the vial was scored after 20 seconds.

[4] = tested on: Drosophila retina with mutant tau^V337M; experiment: Age-related retinal degeneration induced by mutant tau V337M; type: in vivo; conditions: overexpression in Drosophila
[5] = Maltose assays of fly hemolymph and bodies; type: in vivo, Drosophila; conditions: Amyrel overexpression, in comparison with isogenic controls
Method: Maltose Assays. Flies were decapitated and placed in a perforated 0.6 mL tube resting in a 1.5 mL tube, which was centrifuged at 1700 g for 6 minutes at 4° C. to collect the hemolymph ([…], et al. (2009) Cell Metab. 10:199-207). Equal volumes of hemolymph (1 μL) were used for subsequent determination of maltose levels. To avoid interference from eye pigments (Al-Anzi, et al. (2010) PLoS ONE 5(8):e12353), flies (n=10/biological replicate) were decapitated and homogenized with a Next Advance BULLET BLENDER® and 0.5-mm zirconium beads in 100 μL of maltose assay buffer (MAB). Body homogenates were then collected after centrifugation at maximum speed for 10 minutes to remove cuticle debris. Subsequently, the quantification of maltose concentration in the hemolymph and bodies was done with the maltose assay kit (Sigma-Aldrich), according to manufacturer's instructions. In brief, hemolymph and body homogenates were diluted 1:40 in MAB. […] After 1 hour, the absorbance was read at 570 nm with a Tecan Infinite 200 Pro. Blank (0 maltose standards) readings were subtracted from all readings. Maltose levels were calculated from the standard curve after subtracting the absorbance read in the absence of glucosidase treatment, which accounts for background glucose levels, from the absorbance read in duplicate samples treated with glucosidase.

[6] = Amylase activity assay of fly body homogenates; type: in vivo, Drosophila; conditions: Amyrel overexpression, in comparison with isogenic controls
Method: Amylase Activity Assay. Colorimetric detection of amylase activity was performed according to the manufacturer's instructions (Sigma-Aldrich). In brief, five flies were decapitated and placed on ice in a 1.5 ml tube. The decapitated bodies were homogenized in 150 μL of Amylase Assay Buffer (AAB). The homogenate was collected after high-speed centrifugation for 10 minutes. For this assay, 5 μL the body homogenate or standard was added to a well in a 96-well plate and brought up to 50 μL with AAB and water, respectively. A master reaction mix was made to conduct a colorimetric assay, and 100 μL was added to each well. The plate was mixed well using a horizontal shaker. After 2-3 minutes the absorbance was measured at 405 nm.

Drosophila heads = experiment: Head transcriptome of flies with muscle-specific Amyrel overexpression; type: in vivo

Row | Molecule | pathogenic huntingtin (Htt-Q72-GFP) aggregates, total area and number of speckles [1] | levels of polyubiquitinated proteins in heads ([2]; flies with pathogenic Huntingtin (Htt-polyQ120) expression in the retina, muscle-specific overexpression) | proteostasis in skeletal muscle ([2]; muscle-specific overexpression) | age-related accumulation of proteasome substrates (poly-ubiquitinated proteins, detergent-insoluble fractions) in head tissues ([2]; muscle-specific overexpression, 10, 30 and 60 days) | Atg8 conversion and levels (autophagy) ([2]; muscle-specific overexpression, heads) | amount of poly-ubiquitin protein aggregates in the retina and brain in old age [3] | capacity for startle-induced negative geotaxis during aging (Drosophila) | percentage of flies unable to respond to stimulation, increase with aging (Drosophila) | age-related neurodegeneration (retinal degeneration, rough eye phenotype) induced by tau^V337M [4] | circulating (hemolymph) maltose [5] | whole body maltose [5] | amylase activity [6] | induction of Hsp23 gene (Drosophila heads) [fold] | genes involved in proteostasis, including several chaperones and proteases (Drosophila heads; compared to isogenic controls)
1 | B1 | reduced | – | – | – | – | – | – | – | – | – | – | – | – | –
2 | B2 | reduced | – | – | – | – | – | – | – | – | – | – | – | – | –
3 | B3 | less so; also recorded: decrease in an age-dependent manner | reduced the levels of polyubiquitinated proteins | did not regulate proteostasis in skeletal muscle | reduced the age-related accumulation of proteasome substrates; also recorded: reduced the age-related increase in polyubiquitinated proteins | not significantly modulated | significantly reduced | preserves the capacity for negative geotaxis | less so | largely prevented | increase | increase | increase | > 8 | induced
